Source: PMC6393240, “DNA replication initiation in Bacillus subtilis: structural and functional characterization of the essential DnaA–DnaD interaction” (Nucleic Acids Research, 2018)

B3: DnaA domain I (residues 1–81) of Bacillus subtilis DnaA (domain or fragment, UniProt P05648 1-81, looked up)
chain: MENILDLWNQALAQIEKKLSKPSFETWMKSTKAHSLQGDTLTITAPNEFARDWLESRYLHLIADTIYELTGEELSIKFVIP
notes: DnaA, Bacillus subtilis, domain I, residues 1-81; After thrombin cleavage a residual N-terminal Gly-Ser-His leader remains; 15N-labelled (or 13C/15N) where it is the observed partner in NMR, unlabelled in the reverse titration; also called N-terminal domain I of DnaA; DnaA NTD; not shown: His tag, N-terminal, cleaved

Experiments:
[1] = target: the molecule itself; assay: cross-linking; BMOE (2 mM) cross-linking of 1.5 μM DnaA(N191C/A198C) with 3 nM 819 bp DNA, 2 mM ATP, 37°C; SDS-PAGE, Coomassie
[2] = target: the molecule itself; assay: FRET or BRET; single-molecule FRET, confocal, room temperature; 1.5 μM DnaA (1:1:2 Cy3B-labelled: Atto647N labelled: un-labelled) with 3 nM 819 bp oriC DNA fragment and 2 mM ATP, 37°C 15 min; measured at ∼100 pM DnaA in imaging buffer
[3] = target: T1, DnaD DDBH2 domain (residues 129–232) of Bacillus subtilis DnaD (Bacillus subtilis, UniProt P39787 129-232); assay: NMR titration; reverse titration: unlabelled DnaA domain I titrated into 15N-labelled DnaD DDBH2 (100 μM) up to 8:1 excess; 50 mM potassium phosphate pH 7.4, 100 mM NaCl; 25°C; KD averaged over five residues; conditions: both partners purified
T1 construct: DnaD, Bacillus subtilis, DDBH2 domain, residues 129-232; A residual N-terminal Gly-Ser-His remains after thrombin cleavage; 15N-labelled in the reverse titration; also called C-terminal DDBH2 domain; not shown: His tag, N-terminal, cleaved
T1 sequence (looked up): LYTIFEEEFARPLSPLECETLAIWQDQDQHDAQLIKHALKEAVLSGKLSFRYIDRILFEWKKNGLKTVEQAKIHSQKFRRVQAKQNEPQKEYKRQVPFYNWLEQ

[4] = target: T1, DnaD DDBH2 domain (residues 129–232) of …; assay: NMR titration; 1H-15N HSQC, chemical shift perturbations; unlabelled DnaD DDBH2 (129-232 or 129-196) titrated into 15N-labelled DnaA domain I (100 μM) up to 8:1 excess; 50 mM potassium phosphate pH 7.4, 100 mM NaCl; 25°C; KD averaged over five residues; conditions: both partners purified
[5] = target: DnaA(N191C), labelled with Cy3B or Atto647N (Bacillus subtilis) (UniProt P05648)
[6] = target: B3; assay: NMR titration; 1H-15N HSQC, chemical shift perturbations; unlabelled DnaD DDBH2 (129-232 or 129-196) titrated into 15N-labelled DnaA domain I (100 μM) up to 8:1 excess; 50 mM potassium phosphate pH 7.4, 100 mM NaCl; 25°C; KD averaged over five residues; conditions: both partners purified
[7] = target: DnaA(N191C), labelled with Cy3B or Atto647N (Bacillus subtilis) (UniProt P05648); remark: listed apart in the source

B1: DnaA(N191C/A198C) (natural protein, Bacillus subtilis, UniProt P05648 1-446, looked up)
chain: MENILDLWNQALAQIEKKLSKPSFETWMKSTKAHSLQGDTLTITAPNEFARDWLESRYLHLIADTIYELTGEELSIKFVIPQNQDVEDFMPKPQVKKAVKEDTSDFPQNMLNPKYTFDTFVIGSGNRFAHAASLAVAEAPAKAYNPLFIYGGVGLGKTHLMHAIGHYVIDHNPSAKVVYLSSEKFTNEFICSIRDNKCVDFRNRYRNVDVLLIDDIQFLAGKEQTQEEFFHTFNTLHEESKQIVISSDRPPKEIPTLEDRLRSRFEWGLITDITPPDLETRIAILRKKAKAEGLDIPNEVMLYIANQIDSNIRELEGALIRVVAYSSLINKDINADLAAEALKDIIPSSKPKVITIKEIQRVVGQQFNIKLEDFKAKKRTKSVAFPRQIAMYLSREMTDSSLPKIGEEFGGRDHTTVIHAHEKISKLLADDEQLQQHVKEIKEQLK
notes: DnaA, Bacillus subtilis, double cysteine mutant N191C/A198C; also called DnaA(N191C/A198C) mutant protein
binding result [1]: binds

B2: DnaA(A198C), labelled with Cy3B or Atto647N (natural protein, Bacillus subtilis, UniProt P05648 1-446, looked up)
chain: MENILDLWNQALAQIEKKLSKPSFETWMKSTKAHSLQGDTLTITAPNEFARDWLESRYLHLIADTIYELTGEELSIKFVIPQNQDVEDFMPKPQVKKAVKEDTSDFPQNMLNPKYTFDTFVIGSGNRFAHAASLAVAEAPAKAYNPLFIYGGVGLGKTHLMHAIGHYVIDHNPSAKVVYLSSEKFTNEFINSIRDNKCVDFRNRYRNVDVLLIDDIQFLAGKEQTQEEFFHTFNTLHEESKQIVISSDRPPKEIPTLEDRLRSRFEWGLITDITPPDLETRIAILRKKAKAEGLDIPNEVMLYIANQIDSNIRELEGALIRVVAYSSLINKDINADLAAEALKDIIPSSKPKVITIKEIQRVVGQQFNIKLEDFKAKKRTKSVAFPRQIAMYLSREMTDSSLPKIGEEFGGRDHTTVIHAHEKISKLLADDEQLQQHVKEIKEQLK
modifications: Cy3B-maleimide or Atto647N-maleimide on the single cysteine A198C (mixed 1:1:2 Cy3B-labelled: Atto647N labelled: un-labelled)
notes: DnaA, Bacillus subtilis, single cysteine mutant A198C; Printed once as DnaA^N198C and once as DnaA^A19C in the methods (misprints)
binding result [2]: binds

B3
Kd [3]: 665 ± 251 µM | Kd [4]: 768 ± 168 µM

B4: DnaD, full length, Bacillus subtilis (natural protein)
chain: MKKQQFIDMQEQGTSTIPNLLLTHYKQLGLNETELILLLKIKMHLEKGSYFPTPNQLQEGMSISVEECTNRLRMFIQKGFLFIEECEDQNGIKFEKYSLQPLWGKLYEYIQLAQNQTQERKAEGEQKSLYTIFEEEFARPLSPLECETLAIWQDQDQHDAQLIKHALKEAVLSGKLSFRYIDRILFEWKKNGLKTVEQAKIHSQKFRRVQAKQNEPQKEYKRQVPFYNWLEQ
single-molecule FRET of Cy3B/Atto647N-labelled DnaA–DNA filaments: apparent FRET efficiency E* with DnaD (24 μM) added before or after DnaA; E* ∼0.7 without DnaD [5]: 0.5

B5: Truncated DnaD DDBH2 domain (residues 129–196) (domain or fragment, Bacillus subtilis, UniProt P39787 129-196, looked up)
chain: LYTIFEEEFARPLSPLECETLAIWQDQDQHDAQLIKHALKEAVLSGKLSFRYIDRILFEWKKNGLKTV
notes: DnaD, Bacillus subtilis, DDBH2 domain truncated at the C-terminus, residues 129-196; Made from the DDBH2 (129-232) construct by Q5 site directed mutagenesis; A residual N-terminal Gly-Ser-His remains after thrombin cleavage; also called DnaD DDBH2 domain truncation; truncated DDBH2; not shown: His tag, N-terminal, cleaved
binding result [6]: binds

B6: DnaD196, truncated DnaD lacking the C-terminal residues 197–232 (domain or fragment)
chain: MKKQQFIDMQEQGTSTIPNLLLTHYKQLGLNETELILLLKIKMHLEKGSYFPTPNQLQEGMSISVEECTNRLRMFIQKGFLFIEECEDQNGIKFEKYSLQPLWGKLYEYIQLAQNQTQERKAEGEQKSLYTIFEEEFARPLSPLECETLAIWQDQDQHDAQLIKHALKEAVLSGKLSFRYIDRILFEWKKNGLKTV
single-molecule FRET of labelled DnaA–DNA filaments: apparent FRET efficiency E* with DnaD196 (24 μM); E* ∼0.7 in its absence [7]: 0.5
